The values that follow come from patent US20200376034A1 (DRAGONFLY THERAPEUTICS, published 2020).

The target of assay [1] is T1, human CD33 extracellular domain (human, UniProt P20138 18-259).
T1 construct: also called human CD33 ECD; hCD33
As to the kind of experiment: SPR, Fab captured, 37 C. (SPR reads the build-up and loss of mass on a sensor chip optically.)
Description: (§1) Kinetics and affinity of a series of Fab fragments of anti-CD33 antibodies with different CD33 variants (human CD33 ECD, cyno CD33 ECD, V-domain of human CD33, C-domain or human CD33 and selected CD33 SNPs) were assessed by surface plasmon resonance using Biacore 8K instrument (GE Healthcare). Anti-Fab antibody was immobilized on a CMS chip using standard amine coupling chemistry. CD33 FABs were captured on the anti-Fab chip at a density of ˜100 RU. Solutions containing different concentrations of soluble monomeric CD33 or its domains were injected over the captured FABs and control surfaces at 30 μl/min at 37° C. Surfaces were regenerated between cycles by quick injection of 10 mM glycine, pH 1.8. To obtain kinetic rate constants double-referenced data were fit to a 1:1 interaction model using Biacore 8K Evaluation software (GE Healthcare). The equilibrium binding constant KD was determined by the ratio of binding rate constants kd/kₐ.
(§2) Affinity of 29 Fab fragments binding to human and cyno CD33 ECD were assayed by Biacore analysis.

In assay [2] the target is T1, human CD33 extracellular domain. As to the kind of experiment: SPR, Fab captured, 37 C. The source holds these as a separate data set.
Description: as §1, §2
Assay [3] deals with T2, deglycosylated V domain of human CD33 (human, UniProt P20138 18-139, limits assumed, deglycosylated by PNGase).
T2 construct: whole entry named; also called deglycosylated V CD33
The assay is described as follows: SPR, Fab captured, 37 C.
Description: as §1
The ability of anti-CD33 antibodies to recognize glycosylated CD33 was assayed. […] De-glycosylation status was confirmed by a shift on SDS-PAGE and MS.

In assay [4] the target is T1, human CD33 extracellular domain. The assay is described as follows: SPR, Fab captured, 37 C. This is another data set of the same source.
Description: as §1, §2
Assay [5] shares this target. As to the kind of experiment: SPR, Fab captured, 37 C. The source holds these as a separate data set.
Description: as §1
For assay [6] the target is unchanged. The assay is described as follows: BLI, IgG on sensor.
Description: Briefly, ForteBio affinity measurements were performed by loading IgGs on-line onto AHC sensors. Sensors were equilibrated off-line in assay buffer for 30 min and then monitored on-line for 60 seconds for baseline establishment. Sensors with loaded IgGs were exposed to 100 nM antigen for 3 minutes, and afterwards were transferred to assay buffer for 3 min for off-rate measurement. All kinetics were analyzed using the 1:1 binding model.

B1: ADI-10163 Fab (Fab, V domains shown)
VH: QVQLQESGPGLVKPSQTLSLTCTVSGGSISSGGYYWSWIRQHPGKGLEWIGSIYYSGSTYYNPSLKSRVTISVDTSKNQFSLKLSSVTAADTAVYYCARDRLDYSYNYGMDVWGQGTTVTVSS
VL: DIQMTQSPSSLSASVGDRVTITCRASQSISSYLNWYQQKPGKAPKLLIYGASSLQSGVPSRFSGSGSGTDFTLTISSLQPEDFATYYCQQVYSAPFTFGGGTKVEIK
notes: Fab fragment; also called Ab17
By koff is commonly meant the first-order rate constant of dissociation. Read a low koff as slow dissociation. In general, kon refers to a measure of how fast the partners come together. Low readings indicate slower complex formation, high ones faster complex formation. For B1, the koff in assay [1] turned out to be 0.0275 s⁻¹; in assay [2], 0.0275 s⁻¹; in assay [3] it was 0.256 s⁻¹; in assay [4] it was 0.0275 s⁻¹; in assay [5], 0.0275 s⁻¹. Further, the kon in assay [1] worked out at 515000 M⁻¹ s⁻¹; in assay [2], 515000 M⁻¹ s⁻¹; in assay [3], 1.68e+06 M⁻¹ s⁻¹; in assay [4], 515000 M⁻¹ s⁻¹; in assay [5], 515000 M⁻¹ s⁻¹.

B2: ADI-10163 IgG (antibody, V domains shown)
VH: B1 VH
VL: B1 VL
notes: IgG; also called Ab17
In assay [6], B2 had a koff of 0.00453 s⁻¹ and a kon of 665000 M⁻¹ s⁻¹.

B3: ADI-10173 Fab (Fab, V domains shown)
VH: QVQLVQSGAEVKKPGASVKVSCKASGYTFTSYYMHWVRQAPGQGLEWMGIINPSGGSTTYAQKFQGRVTMTRDTSTSTVYMELSSLRSEDTAVYYCAREAADGFVGERYFDLWGRGTLVTVSS
VL: not shown
notes: Fab fragment; also called Ab22
For the molecule B3, the dissociation rate constant (koff) in assay [1] was determined as 0.0125 s⁻¹; in assay [2] it was 0.0125 s⁻¹; in assay [3], 0.131 s⁻¹; in assay [4], 0.0125 s⁻¹; in assay [5] it was 0.0125 s⁻¹. Besides, the kon in assay [1] is 212000 M⁻¹ s⁻¹; in assay [2], 212000 M⁻¹ s⁻¹; in assay [3] it was 674000 M⁻¹ s⁻¹; in assay [4], 212000 M⁻¹ s⁻¹; in assay [5], 212000 M⁻¹ s⁻¹.

B4: ADI-10173 IgG (antibody, V domains shown)
VH: B3 VH
VL: not shown
notes: IgG; also called Ab22
In assay [6], B4 had a koff of 0.00314 s⁻¹ and a kon of 324000 M⁻¹ s⁻¹.
